# Laboratory results reported in the MegaScale stability set (Tsuboyama et al. 2023).
# B1: EHEE_rd2_0601 (parent)
# chain: TYTYKLTDEEASRRAEDEWRNRGYDVRVRNNNGTWEVEVR
# Variants of: B1
# Experiment: folding stability dG (cDNA display proteolysis); higher = more stable
# Settings: PBS, room temperature
row,Variant,folding stability dG [kcal/mol]
1,S12K,0.553
2,S12L,1.39
3,S12F,1.08
4,S12R,0.481
5,S12N,-0.531
6,S12I,0.918
7,S12T,1.51
8,S12M,1.95
9,S12D,-0.63
10,S12V,2.17
11,S12A,3.22
12,S12P,-0.764
13,S12W,0.977
14,S12E,-0.128
15,S12C,2.33
16,S12Y,0.95
17,S12H,-0.243
18,S12G,1.14
19,S12Q,0.072
20,R13H,0.979
21,R13L,1.08
22,R13K,1.45
23,R13D,0.014
24,R13G,0.328

row,Variant,folding stability dG [kcal/mol]
1,R13F,0.619
2,R13C,0.559
3,R13A,0.771
4,R13I,0.934
5,R13E,0.263
6,Y4V,0.852
7,Y4N,-0.767
8,Y4T,-0.316
9,Y4M,1.14
10,Y4P,-0.228
11,Y4S,-0.488
12,Y4W,1.12
13,Y4L,1.36
14,Y4K,-0.308
15,Y4Q,0.276
16,D8C,1.07
17,D8H,0.365
18,D8E,0.662
19,D8S,1.9
20,D8W,0.339
21,D8R,-0.434
22,D8K,-0.424
23,D8V,-0.022
24,D8G,0.808

row,Variant,folding stability dG [kcal/mol]
1,D8N,1.47
2,D8F,0.427
3,D8Y,0.298
4,D8I,0.306
5,D8A,0.271
6,D8T,1.74
7,D8L,0.261
8,D8M,0.146
9,D8Q,0.142
10,E9D,0.289
11,E9Y,1.58
12,E9Q,1.07
13,E9R,0.802
14,E9G,0.631
15,E9V,0.885
16,E9P,0.822
17,E9A,1.12
18,E9M,0.936
19,E9W,1.26
20,E9L,1.14
21,E9N,0.05
22,E9K,0.834
23,E9S,0.61
24,E9I,0.934

row,Variant,folding stability dG [kcal/mol]
1,E9F,1.29
2,E9H,0.807
3,E9T,0.198
4,T7N,1.62
5,T7Q,1.86
6,T7P,2.05
7,T7R,1.61
8,T7V,1.63
9,T7E,1.85
10,T7C,2
11,T7D,1.81
12,T7H,1.69
13,T7L,1.82
14,T7A,1.94
15,T7W,1.64
16,T7M,1.78
17,T7G,1.69
18,T7I,1.62
19,T7K,1.79
20,T7F,1.91
21,T7S,1.63
22,T7Y,2.02
23,A11M,1.11
24,A11W,0.697

row,Variant,folding stability dG [kcal/mol]
1,A11T,1.19
2,A11P,-0.502
3,A11H,0.875
4,A11Y,0.624
5,A11Q,1.22
6,A11E,1.5
7,A11D,1.12
8,A11N,0.709
9,A11K,0.673
10,A11S,1.58
11,A11G,0.768
12,A11I,0.447
13,A11F,0.664
14,A11L,0.971
15,A11R,0.546
16,A11V,0.486
17,E10H,1.09
18,E10S,1.22
19,E10I,1.3
20,E10M,1.41
21,E10R,1.06
22,E10C,1.88
23,E10P,1.02
24,E10V,1.27

row,Variant,folding stability dG [kcal/mol]
1,E10A,1.75
2,E10L,1.34
3,E10Y,1.29
4,E10W,1.28
5,E10Q,1.41
6,E10T,1.23
7,E10D,1.38
8,E10F,1.2
9,E10G,1.1
10,E10N,1.12
11,E10K,1.19
12,L6H,1.48
13,L6I,1.15
14,L6G,0.912
15,L6S,1.23
16,L6Q,0.88
17,L6T,1.8
18,L6E,0.639
19,L6R,-0.655
20,L6M,1.97
21,L6Y,3.41
22,L6V,2.08
23,L6P,-0.21
24,L6N,0.622

row,Variant,folding stability dG [kcal/mol]
1,L6K,-0.09
2,L6W,1.14
3,L6D,0.391
4,L6F,3.77
5,L6A,1.4
6,K5M,1.72
7,K5D,0.851
8,K5L,1.84
9,K5G,0.688
10,K5F,2.34
11,K5A,1.38
12,K5Q,1.71
13,K5P,0.658
14,K5E,1.31
15,K5N,1.38
16,K5V,1.97
17,K5Y,2.64
18,K5W,1.83
19,K5S,1.58
20,K5R,1.56
21,K5H,1.74
22,K5T,1.95
23,K5I,2.2
